Target: Aβ42 fibrils Aβ42 (Homo sapiens, UniProt P05067)
Test: SPR

Chain of Aβ42 fibrils Aβ42 (P05067 672-713): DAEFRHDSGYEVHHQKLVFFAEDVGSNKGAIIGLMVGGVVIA

Kd: 12.9 nM
B1: BRICHOS (proSP-C) BRICHOS (protein)
chain: TATFSIGSTGLVVYDYQQLLIAYKPAPGTCCYIMKIAPESIPSLEALTRKVHNFQMECSLQAKPAVPTSKLGQAEGRDAGSAPSGGDPAFLGMAVSTLCGEVPLYYI

From paper PMC10834949 (2024)
